Molecular target: stromal cell derived factor-1 (SDF-1, also known as CXCL12), wild type (UniProt P48061 22-93)

Kd: 200 ± 200 nM
fold tighter binding than the unsulfated peptide p38: ~20 fold
Binder: GSMEGISIYTSDNYTEEMGSGDYDSMKEPAFREENANFNK (sulfotyrosine at positions 7, 12 and 21) [CXCR4 N-terminal peptide p38-sY3 (sulfotyrosine at positions 7, 12 and 21)]

Reference: publication PMC2692298 (Science signaling, 2008)
